Assay results taken from patent publication US20250171542A1 (ADEPT THERAPEUTICS, published 2025).
Changes are numbered by the printed parent chain. Each block holds one binder with its values, some of them ahead of it.

What was measured:
[1] = target: T1, rat PD-L1 (Sino Biological, Cat #80450-R08H) (rat, UniProt D4AE25 19-239); assay: ELISA
T1 construct: not shown: The vendor's polyhistidine tag

[2] = target: T2, canine PD-L1 (Acro Biosystems, Cat #PDL-C52H4) (canine, UniProt E2RKZ5 19-236); assay: ELISA
T2 construct: not shown: The vendor's tag, probably a polyhistidine tag
T2 sequence: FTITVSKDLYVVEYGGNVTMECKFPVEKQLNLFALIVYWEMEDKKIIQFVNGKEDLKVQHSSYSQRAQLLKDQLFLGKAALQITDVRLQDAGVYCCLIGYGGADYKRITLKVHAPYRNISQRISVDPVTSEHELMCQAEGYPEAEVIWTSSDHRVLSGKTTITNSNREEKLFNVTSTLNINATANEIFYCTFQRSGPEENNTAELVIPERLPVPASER

[3] = target: T3, CD80 (Sino Biological, Cat #10698-H08H) (UniProt P33681 35-242); assay: ELISA
T3 sequence (looked up): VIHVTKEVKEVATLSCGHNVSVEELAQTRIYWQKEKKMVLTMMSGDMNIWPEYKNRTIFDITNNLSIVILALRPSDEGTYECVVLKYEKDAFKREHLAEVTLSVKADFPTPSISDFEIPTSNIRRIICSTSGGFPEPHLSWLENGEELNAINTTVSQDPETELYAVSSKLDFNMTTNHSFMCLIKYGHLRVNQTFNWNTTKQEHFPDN

[4] = target: T4, BH-H2 (Sino Biological, Cat #11559-H08H) (UniProt O75144 19-258); assay: ELISA
T4 sequence (looked up): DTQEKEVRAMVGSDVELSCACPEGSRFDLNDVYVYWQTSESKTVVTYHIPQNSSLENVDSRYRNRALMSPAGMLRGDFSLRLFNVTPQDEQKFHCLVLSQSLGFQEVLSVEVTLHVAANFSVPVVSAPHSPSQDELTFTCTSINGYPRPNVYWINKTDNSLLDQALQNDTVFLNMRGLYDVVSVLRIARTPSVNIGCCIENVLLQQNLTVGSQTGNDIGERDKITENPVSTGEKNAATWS

[5] = target: T5, human PD-L1 expressed on cell surface (human, UniProt Q9NZQ7 19-290); assay: cell-based or functional assay
T5 sequence (Q9NZQ7 19-290 limits assumed): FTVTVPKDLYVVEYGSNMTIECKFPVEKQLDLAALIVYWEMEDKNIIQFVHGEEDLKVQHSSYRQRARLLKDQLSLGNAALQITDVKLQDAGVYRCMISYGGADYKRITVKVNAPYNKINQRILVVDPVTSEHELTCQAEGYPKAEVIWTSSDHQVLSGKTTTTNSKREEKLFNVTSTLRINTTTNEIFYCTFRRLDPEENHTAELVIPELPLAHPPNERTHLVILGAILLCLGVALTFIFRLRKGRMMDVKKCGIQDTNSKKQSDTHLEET

[6] = target: T6, cynomolgus PD-L1-His (Sino Biological, Cat. 90251-C08H) (cynomolgus, UniProt Q9NZQ7 19-238 (human entry)); assay: ELISA, coated cyno PD-L1-His
T6 construct: Bought protein; also called Cyno PD-L1; Cynomolgus PD-L1 ECD-His; not shown: His tag
T6 sequence (Q9NZQ7 other isoform, or with tags, fused parts or gaps C08H C08H limits assumed): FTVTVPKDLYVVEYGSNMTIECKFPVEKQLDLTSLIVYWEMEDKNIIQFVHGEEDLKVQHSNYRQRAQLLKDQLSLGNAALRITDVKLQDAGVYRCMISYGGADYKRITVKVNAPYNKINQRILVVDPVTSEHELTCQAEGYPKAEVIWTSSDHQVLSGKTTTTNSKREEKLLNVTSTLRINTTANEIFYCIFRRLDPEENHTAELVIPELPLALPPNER
Method: (§1) Briefly, Maxisorp plates (Nunc) were coated with 100 ul/well of 0.5 μg/ml human PD-L1-His (Sino Biological, Cat #10084-H08H) or cynomolgus PD-L1-His (Sino Biological, Cat. 90251-C08H) protein diluted in 1×PBS (GIBCO) overnight at 4° C. Plates were washed three times with 300 μl/well washing buffer (1×PBST, diluted from 20×PBST (Thermo Scientific) with distilled water)) and then blocked with 300 μl/well of blocking buffer (1×PBST/I % BSA) for 2 hours at RT on shaker (100 rpm). Plates were washed and added with 100 μl/well of testing antibodies, which were serial diluted with assay buffer (PBST/1% BSA). The antibodies were incubated at room temperature for 2 hours on plate shaker at 100 rpm. Plates were washed. One hundred microliter of horseradish peroxidase (HRP) conjugated detection antibody was added into each well and incubated at room temperature for 1 hour on plate shaker at 100 rpm. Plates were washed and added with 100 μl/well TMB substrate for color development at room temperature in dark for up to 10 minutes. After addition of 50 μl/well of stop solution (1N H₂SO₄), plates were read at 450 nm on a plate reader (SpectraMax M5).
(§2) Anti-HEL isotype control (Biolntron) was used as negative control.

[7] = target: T7, human PD-L1-His (Sino Biological, Cat #10084-H08H) (human, UniProt Q9NZQ7 19-238); assay: ELISA, coated human PD-L1-His
T7 construct: Bought protein; also called human PD-L1 ECD-His; recombinant human PD-L1-His protein; not shown: His tag
T7 sequence (Q9NZQ7 19-238): as the sequence (Q9NZQ7 other isoform, or with tags, fused parts or gaps C08H C08H limits assumed) above, with T33A, S34A, N62S, Q68R, R82Q, L173F, A185T, I192T, L215H counted along it
Method: as §1, §2

[8] = target: T6, cynomolgus PD-L1-His (Sino Biological, …); assay: BLI (Gator), cynomolgus PD-L1
[9] = target: T5, human PD-L1 expressed on cell surface; assay: flow cytometry, MDA-MB-231-GFP cells
Method: Cells were then resuspended in FACS buffer (1×DPBS/1% FBS) at 10⁶/ml concentration. One hundred microliter (100 μl) of cells were aliquoted into a single well in 96 well plates. The antibodies to be tested were serially diluted at 1:3 fold starting at 15 ug/mL and were then added into each well. The antibodies were mixed with cells and the mixtures were incubated on ice for 1 hour. […] After washing with FACS buffer, stained cells were resuspended at diluted […] (Biolegend, Cat #420404, used at 1:100 dilution) and analyzed on Guava 11HT (Luminex). Data was analyzed using Flowjo software.
as §2

[10] = target: T7, human PD-L1-His (Sino Biological, Cat …); assay: BLI (Gator), antibody on HFC probe, human PD-L1-His in solution
Method: The affinity of the binding of the exemplary anti-PD-L1 antibodies of the present disclosure was determined. Assay was performed according to the protocol recommended by Gator or Gator Plus (Gator Bio Inc.). Briefly, human PD-L1-His (Sino Biological, Cat #10084-H08H) was serially diluted 4-fold, starting at 4 μg/ml. After three times of regeneration in generation buffer (Gator Bio, Cat #120012) and neutralization of HFC probe (Gator Bio, Cat #160003), 1 μg/ml of antibody to be tested in Q buffer (Gator Bio, Cat #120010) was immobilized onto HFC probe. After a baseline step, probe immobilized with antibody was dipped into antigen solutions. The association and dissociation of antigen from antibody was measured on BLI machine Gator. Affinity was calculated using Gator Bio analysis software.
Table 22 below summarizes the binding affinity to human PD-L1 using Gator.

T1 sequence (D4AE25 entry or part of it R08H R08H limits assumed): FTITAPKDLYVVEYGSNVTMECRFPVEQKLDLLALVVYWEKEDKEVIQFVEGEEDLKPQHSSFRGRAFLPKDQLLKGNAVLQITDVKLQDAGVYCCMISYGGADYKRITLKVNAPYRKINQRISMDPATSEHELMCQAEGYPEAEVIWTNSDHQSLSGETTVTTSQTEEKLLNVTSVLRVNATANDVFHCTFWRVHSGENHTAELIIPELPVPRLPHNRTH

binding result [1]: no binding | binding result [2]: no binding | binding result [3]: no binding | binding result [4]: no binding | Internalization (%), FACS, 0.25 µg/ml, 2 h [5]: 19.3% | Internalization (%), FACS, 0.25 µg/ml, 4 h [5]: 16.5% | Internalization (%), FACS, 0.5 µg/ml, 2 h [5]: 11.1% | Internalization (%), FACS, 0.5 µg/ml, 4 h [5]: 21.7% | Internalization (%), FACS, 1 µg/ml, 2 h [5]: 12.7% | Internalization (%), FACS, 1 µg/ml, 4 h [5]: 15.6% | Internalization (%), FACS, 2 µg/ml, 2 h [5]: 19.2% | Internalization (%), FACS, 2 µg/ml, 4 h [5]: 22.1% | EC50 [6]: 0.0071 nM | EC50 [7]: 0.0186 nM | Kd [8]: 0.03 nM | koff [8]: 7e-06 s⁻¹ | kon [8]: 284000 M⁻¹ s⁻¹ | EC50 [9]: 4.82 nM | Kd [10]: 0.09 nM | koff [10]: 7.7e-05 s⁻¹ | kon [10]: 810000 M⁻¹ s⁻¹
B1: 57B10 (antibody, human IgG1, V domains shown)
VH: QEQLEESGGGLVQPEGSLTLTCTASGFSFSDDYYMSWVRQAPGKGLEWIASIYTGSLNTYYATWAKGRFTISLTSSTTVTLQMTSLTAADTATYFCARRNKNADWGHFDLWGPGTLVTVSS
VL: YDMTQTPASVEVAVGGTVTIKCQASQSISTALAWYQQKPGQPPKLLIYAASTLASGVPSRFRGSGSGTDFTLTISDLECADAATYYCQQGWTVSSLDNAFGGGTEVVAM

binding result [1]: no binding | binding result [2]: no binding | binding result [3]: no binding | binding result [4]: no binding | Internalization (%), FACS, 0.25 µg/ml, 2 h [5]: 22.3% | Internalization (%), FACS, 0.25 µg/ml, 4 h [5]: 21% | Internalization (%), FACS, 0.5 µg/ml, 2 h [5]: 12.2% | Internalization (%), FACS, 0.5 µg/ml, 4 h [5]: 24% | Internalization (%), FACS, 1 µg/ml, 2 h [5]: 16.4% | Internalization (%), FACS, 1 µg/ml, 4 h [5]: 17.7% | Internalization (%), FACS, 2 µg/ml, 2 h [5]: 16.1% | Internalization (%), FACS, 2 µg/ml, 4 h [5]: 17.9% | EC50 [6]: 0.0188 nM | EC50 [7]: 0.024 nM | kon [8]: 313000 M⁻¹ s⁻¹ | EC50 [9]: 2.03 nM | Kd [10]: 0.43 nM | koff [10]: 0.000342 s⁻¹ | kon [10]: 788000 M⁻¹ s⁻¹
B2: 62E6 (antibody, human IgG1, V domains shown)
VH: B1 VH with G10D, Q13K, D31G, T59I, W105Y
VL: B1 VL with S29N, T30D, A31R, G40R, A49G, R62K, D69E, A80V, M109K

binding result [1]: no binding | binding result [2]: no binding | binding result [3]: no binding | binding result [4]: no binding | Internalization (%), FACS, 0.25 µg/ml, 2 h [5]: 18.2% | Internalization (%), FACS, 0.25 µg/ml, 4 h [5]: 15.9% | Internalization (%), FACS, 0.5 µg/ml, 2 h [5]: 16.2% | Internalization (%), FACS, 0.5 µg/ml, 4 h [5]: 18% | Internalization (%), FACS, 1 µg/ml, 2 h [5]: 15.9% | Internalization (%), FACS, 1 µg/ml, 4 h [5]: 18.2% | Internalization (%), FACS, 2 µg/ml, 2 h [5]: 17.7% | Internalization (%), FACS, 2 µg/ml, 4 h [5]: 21.2% | EC50 [6]: 0.0177 nM | EC50 [7]: 0.0215 nM | Kd [8]: 0.18 nM | koff [8]: 7.7e-05 s⁻¹ | kon [8]: 428000 M⁻¹ s⁻¹ | EC50 [9]: 2 nM | Kd [10]: 9.09 nM | koff [10]: 0.00653 s⁻¹ | kon [10]: 718000 M⁻¹ s⁻¹
B3: 69D10 (antibody, human IgG1, V domains shown)
VH: B1 VH with D31G, Y33W, T54S, I71V, W105Y
VL: B1 VL with S29G, T30N, A50T, R62K, D69E, A80G, M109K
